In PMC2877774:

Legend:
[1] = target: Anti-σ domain (ASD) of Mycobacterium tuberculosis RslA (residues 1–108), Zn2+-bound (Mycobacterium tuberculosis) (UniProt P9WJ67); test: crystal structure
[2] = target: RsrA (Streptomyces coelicolor) (UniProt Q7AKG8); conditions: cited from earlier work
Sequence of RsrA (Streptomyces coelicolor) (Q7AKG8 whole entry): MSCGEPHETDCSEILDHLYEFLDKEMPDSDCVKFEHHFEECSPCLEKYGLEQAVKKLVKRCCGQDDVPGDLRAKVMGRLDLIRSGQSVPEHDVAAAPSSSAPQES

Sequence of σR (Q7AKG9 whole entry): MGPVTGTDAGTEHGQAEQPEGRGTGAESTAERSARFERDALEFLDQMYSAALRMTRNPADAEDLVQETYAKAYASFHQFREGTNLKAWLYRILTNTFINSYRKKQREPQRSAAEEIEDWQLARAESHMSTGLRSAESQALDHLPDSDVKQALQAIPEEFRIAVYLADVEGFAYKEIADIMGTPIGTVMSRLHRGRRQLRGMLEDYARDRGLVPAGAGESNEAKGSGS
Sequence of Anti-σ domain (ASD) of Mycobacterium tuberculosis RslA (residues 1–108), Zn2+-bound (Mycobacterium tuberculosis) (P9WJ67 1-108): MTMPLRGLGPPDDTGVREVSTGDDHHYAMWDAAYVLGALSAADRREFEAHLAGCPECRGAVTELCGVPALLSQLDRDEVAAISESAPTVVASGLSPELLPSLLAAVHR

Substance	stoichiometry N [1]	Kd [2] [nM]
σ4^L, the −35-element recognition domain of Mycobacterium tuberculosis σ^L (from UniProt P9WGH5 99-177) (domain or fragment)	1	–
σR (from UniProt Q7AKG9)	–	10
